Values belong to the binder of their own block, whether it stands above or below them.
Tests used:
[1] = molecular target: T1, human KIX domain of CBP (residues 587-673) with 36 extra N-terminal residues (human, UniProt Q92793 587-673, RED-tris-NTA dye bound non-covalently to the His tag); experiment: MST; as a1, KBM peptide binding to labelled KIX in the presence of the 9aaTAD peptide (its concentration not told); settings: both partners purified
T1 construct: synthetic codon-optimised gene in pET100/TOPO; construct 14.5 kDa; no cleavage is described; also called His-tagged KIX domain; source: E. coli BL21 DE3, purified (Histrap HP, Resource Q, Superdex 75); not shown: His6, N-terminal, kept

[2] = molecular target: T1, human KIX domain of CBP (residues …); experiment: MST; His-tagged KIX labelled with RED-tris-NTA, 20 nM; peptide varied; PBS-Tween (pH 7.4; 0.05% v/v Tween 20); Monolith NT; settings: both partners purified

T1 sequence (Q92793 587-673): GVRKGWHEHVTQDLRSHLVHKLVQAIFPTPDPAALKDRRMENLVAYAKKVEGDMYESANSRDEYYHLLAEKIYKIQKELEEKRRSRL

Kd [1]: ~1100 nM
Kd [2]: ~600 nM
B1: DUX4 KBM peptide for binding analysis (peptide)
peptide: EEEYRALLEE
notes: source: synthetic peptide, bought: GenScript

Kd [2]: ~200 nM
B2: DUX4 9aaTAD peptide for binding analysis (peptide)
peptide: CGLLLDELLASPEFLQQ
notes: as for B1

— publication PMC8990217, “DUX4 is a multifunctional factor priming human embryonic genome activation” (iScience, 2022)
